Source: patent publication US20070161060A1 (published 2007)

How the values were obtained:
[1] = target: AP2 adaptor protein complex (endogenous); assay: cell-based or functional assay
[2] = target: endogenous PIPKIγ of HEK293 cells (UniProt O60331); assay: co-IP from HEK293 cells expressing the Myc-tagged tail
[3] = target: AP2 adaptor protein complex (endogenous)
[4] = target: T1, β-catenin (UniProt P35222 2-781); assay: immunoprecipitation from HEK293 cells
T1 sequence (looked up): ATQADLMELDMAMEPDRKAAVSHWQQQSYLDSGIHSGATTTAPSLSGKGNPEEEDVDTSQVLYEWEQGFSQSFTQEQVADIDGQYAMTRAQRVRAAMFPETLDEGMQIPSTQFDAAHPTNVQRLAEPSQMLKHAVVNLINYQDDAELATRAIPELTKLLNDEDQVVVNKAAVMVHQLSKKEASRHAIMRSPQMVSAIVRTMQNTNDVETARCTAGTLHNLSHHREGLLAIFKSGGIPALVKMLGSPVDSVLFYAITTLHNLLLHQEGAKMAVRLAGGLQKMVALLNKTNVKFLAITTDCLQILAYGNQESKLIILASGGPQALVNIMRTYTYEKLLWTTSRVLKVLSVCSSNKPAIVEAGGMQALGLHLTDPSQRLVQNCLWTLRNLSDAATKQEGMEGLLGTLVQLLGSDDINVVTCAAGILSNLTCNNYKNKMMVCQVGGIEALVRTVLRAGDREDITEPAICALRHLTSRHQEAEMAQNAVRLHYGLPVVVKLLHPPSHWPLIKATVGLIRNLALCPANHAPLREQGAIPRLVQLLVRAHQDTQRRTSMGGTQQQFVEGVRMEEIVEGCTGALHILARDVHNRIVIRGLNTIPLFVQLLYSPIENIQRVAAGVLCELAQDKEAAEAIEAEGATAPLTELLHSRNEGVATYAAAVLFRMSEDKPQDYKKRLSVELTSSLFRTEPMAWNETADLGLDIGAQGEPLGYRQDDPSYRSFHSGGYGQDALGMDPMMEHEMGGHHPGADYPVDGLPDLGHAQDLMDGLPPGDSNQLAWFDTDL

Chain of endogenous PIPKIγ of HEK293 cells (O60331 whole entry): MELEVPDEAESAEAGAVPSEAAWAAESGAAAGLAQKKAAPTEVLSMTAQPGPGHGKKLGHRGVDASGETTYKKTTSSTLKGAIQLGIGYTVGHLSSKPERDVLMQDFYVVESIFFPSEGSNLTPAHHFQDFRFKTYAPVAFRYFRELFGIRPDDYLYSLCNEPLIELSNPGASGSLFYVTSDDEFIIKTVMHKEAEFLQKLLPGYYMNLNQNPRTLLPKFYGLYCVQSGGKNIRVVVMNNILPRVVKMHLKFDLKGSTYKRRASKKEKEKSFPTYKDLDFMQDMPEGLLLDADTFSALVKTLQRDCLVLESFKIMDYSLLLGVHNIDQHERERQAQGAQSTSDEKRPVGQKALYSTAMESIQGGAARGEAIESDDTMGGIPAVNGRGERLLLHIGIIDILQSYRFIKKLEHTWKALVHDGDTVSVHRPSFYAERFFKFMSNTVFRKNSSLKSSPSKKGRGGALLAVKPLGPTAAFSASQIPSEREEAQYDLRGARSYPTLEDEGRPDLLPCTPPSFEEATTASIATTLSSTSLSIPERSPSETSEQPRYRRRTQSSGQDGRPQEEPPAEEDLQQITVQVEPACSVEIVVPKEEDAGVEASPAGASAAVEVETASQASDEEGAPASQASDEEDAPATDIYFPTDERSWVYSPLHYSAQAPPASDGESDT

Work on “HA-tagged wild-type PIPKIγ661 (from UniProt O70161 1-661) (enzyme)” yielded an internalized ALEXA Fluor 647 transferrin, mean fluorescence intensity relative to nonexpressing cells (flow cytometry, MDCK) [1] greater than 40 % increase.

Work on “c-Myc-tagged dimeric E-cadherin C-terminus (Myc-HR-ECDT) (from UniProt P12830 731-882)” yielded a fold affinity against the monomer [2] of 10 fold.

B1: HA-tagged PIPKIγ635 (protein)
chain: MELEVPDEAESAEAGAVTAEAAWSAESGAAAGMTQKKAGLAEAPLVTGQPGPGHGKKLGHRGVDASGETTYKKTTSSTLKGAIQLGIGYTVGNLSSKPERDVLMQDFYVVESIFFPSEGSNLTPAHHFQDFRFKTYAPVAFRYFRELFGIRPDDYLYSLCNEPLIELSNPGASGSVFYVTSDDEFIIKTVMHKEAEFLQKLLPGYYMNLNQNPRTLLPKFYGLYCVQSGGKNIRVVVMNNVLPRVVKMHLKFDLKGSTYKRRASKKEKEKSLPTYKDLDFMQDMPEGLLLDSDTFGALVKTLQRDCLVLESFKIMDYSLLLGVHNIDQQERERQAEGAQSKADEKRPVAQKALYSTAMESIQGGAARGEAIETDDTMGGIPAVNGRGERLLLHIGIIDILQSYRFIKKLEHTWKALVHDGDTVSVHRPSFYAERFFKFMSSTVFRKSSSLKSSPSKKGRGALLAVKPLGPTAAFSASQIPSEREDVQYDLRGARSYPTLEDEGRPDLLPCTPPSFEEATTASIATTLSSTSLSIPERSPSDTSEQPRYRRRTQSSGQDGRPQEEPHAEDLQKITVQVEPVCGVGVVPKEEGAGVEVPPCGASAAASVEIDAASQASEPASQASDEEDAPSTDIYF
B1 was tested, and the “transferrin endocytosis (MDCK stable line)” value [3] was “had no appreciable effect on transferrin endocytosis”.

B2: E-cadherin Val832Met (receptor, UniProt P12830 155-882, looked up)
chain: DWVIPPISCPENEKGPFPKNLVQIKSNKDKEGKVFYSITGQGADTPPVGVFIIERETGWLKVTEPLDRERIATYTLFSHAVSSNGNAVEDPMEILITVTDQNDNKPEFTQEVFKGSVMEGALPGTSVMEVTATDADDDVNTYNAAIAYTILSQDPELPDKNMFTINRNTGVISVVTTGLDRESFPTYTLVVQAADLQGEGLSTTATAVITVTDTNDNPPIFNPTTYKGQVPENEANVVITTLKVTDADAPNTPAWEAVYTILNDDGGQFVVTTNPVNNDGILKTAKGLDFEAKQQYILHVAVTNVVPFEVSLTTSTATVTVDVLDVNEAPIFVPPEKRVEVSEDFGVGQEITSYTAQEPDTFMEQKITYRIWRDTANWLEINPDTGAISTRAELDREDFEHVKNSTYTALIIATDNGSPVATGTGTLLLILSDVNDNAPIPEPRTIFFCERNPKPQVINIIDADLPPNTSPFTAELTHGASANWTIQYNDPTQESIILKPKMALEVGDYKINLKLMDNQNKDQVTTLEVSVCDCEGAAGVCRKAQPVEAGLQIPAILGILGGILALLILILLLLLFLRRRAVVKEPLLPPEDDTRDNVYYYDEEGGGEEDQDFDLSQLHRGLDARPEVTRNDVAPTLMSVPRYLPRPANPDEIGNFIDENLKAADTDPTAPPYDSLLMFDYEGSGSEAASLSSLNSSESDKDQDYDYLNEWGNRFKKLADMYGGGEDD
notes: whole, on cells; Expressed in HEK293 cells and co-immunoprecipitated from lysates; also called Val832Met E-cadherin mutant
B2: binds [4].
